Among the data in the RNAGym collection of RNA variant scans (doi:10.1093/molbev/msab373) are reverse-splicing fitness values, retold here.

B1: Azoarcus group I ribozyme (parent)
chain: GUGCCUUGCGCCGGGAAACCACGCAAGGGAUGGUGUCAAAUUCGGCGAAACCUAAGCGCCCGCCCGGGCGUAUGGCAACGCCGAGCCAAGCUUCGGCGCCUGCGCCGAUGAAGGUGUAGAGACUAGACGGCACCCACCUAAGGCAAACGCUAUGGUGAAGGCAUAGUCCAGGGAGUGGCGAAAGUCACACAAACCGG

In this data set the parent is B1. Description: reverse-splicing fitness (ratio to wild type); higher = more active; in vitro selection; Mg2+ level not given. In short, it runs like this: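 An in vitro group I ribozyme library with randomized positions was T7-transcribed and gel-purified. In triplicate, 10 pmol RNA in EPPS pH 7.5 was reacted with 50 pmoles of a 30-nt RNA substrate for 1 h at 37 °C across several added MgCl2 levels (1–48 mM), then stopped with EDTA. Products were reverse transcribed from a substrate-complementary primer, PCR-amplified and sequenced (HiSeq 4000). Fitness is a variant's read proportion after selection over that before, normalised to wild type.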
C82G A111U A120U A145C C150A C169U U176G: the reverse-splicing fitness came to 0.00177.
As for C82G A111U A120U A145C C150A C169U U176A, the figure is 0.00306; as for C82G A111U A120U A145C C150A C169U U176C, 0.00247.
As for C82G A111U A120G C150G C169A U176C, the figure is 0.0111.
C82G A111U A120G C150G C169A U176A: the reverse-splicing fitness was determined as 0.0115.
Then C82G A111U A120G C150G C169A U176G, with 0.00726.
Then C82G A111U A120G A145G C150A C169U U176A, with 0.0204; and C82G A111U A120G A145G C150A C169U U176C, with 0.0177; and C82G A111U A120G A145G C150A C169U U176G, with 0.00642.
Then C82G A111U A120U A145G C150G C169G, with 0.00714; and C82G A111U A120U A145G C150G C169A, with 0.00873.
Regarding C82G A111U A120U A145C C150A C169A U176G, the reverse-splicing fitness was determined as 0.0022.
As for C82G A111U A120U A145C C150A C169A U176A, the reverse-splicing fitness is 0.00214.
Regarding C82G A111U A120U A145C C150A C169A U176C, the reverse-splicing fitness was found to be 0.00215.
As for C82G A111U A120G C150U C169U U176G, the figure is 0.00743; as for C82G A111U A120G C150U C169U U176C, 0.0168; as for C82G A111U A120G C150U C169U U176A, 0.0199.
Then C82G A111U A120G A145C C150A C169U U176C, with 0.0103; and C82G A111U A120G A145C C150A C169U U176G, with 0.00529; and C82G A111U A120G A145U C150A C169A U176G, with 0.00527.
As for C82G A111U A120G A145U C150A C169A U176A, the figure is 0.0161.
With C82G A111U A120G A145U C150A C169A U176C, the reverse-splicing fitness is 0.0142.
For the variant C82G A111U A120U A145C C169G, the reverse-splicing fitness was determined as 0.00383.
As for C82G A111U A120U A145C C169A, the figure is 0.00222.
On to C82G A111U A120U A145C C169U, for which the reverse-splicing fitness is 0.00386.
Consider C82G A111U A120G C150A C169U U176C, for which the reverse-splicing fitness turned out to be 0.0215.
For C82G A111U A120G C150A C169U U176G, the reverse-splicing fitness amounted to 0.00759.
Then C82G A111U A120G C150A C169U U176A, with 0.0244; and C82G A111U A120U A145C C150U C169U U176C, with 0.00208.
With C82G A111U A120U A145C C150U C169U U176A, the reverse-splicing fitness worked out at 0.00361.
Then C82G A111U A120U A145C C150U C169U U176G, with 0.00228.
Then C82G A111U A120U A145C U176C, with 0.0125; and C82G A111U A120U A145C U176A, with 0.00848.
Then C82G A111U A120U A145C U176G, with 0.00404; and C82G A111U A120G C150G, with 0.00634.
Turning to C82G A111U A120G C150U, the reverse-splicing fitness is 0.0127.
With C82G A111U A120G C150A, the reverse-splicing fitness is 0.00998.
Regarding C82G A111U A120G A145C C169G U176G, the reverse-splicing fitness turned out to be 0.00404.
Then C82G A111U A120G A145C C169G U176A, with 0.0245; and C82G A111U A120G A145C C169G U176C, with 0.0172.
Turning to C82G A111U A120U A145C C150A C169G U176C, the reverse-splicing fitness was determined as 0.00259.
As for C82G A111U A120U A145C C150A C169G U176A, the figure is 0.00283; as for C82G A111U A120U A145C C150A C169G U176G, 0.00199; as for C82G A111U A120G A145G C150G C169U U176G, 0.00754.
As for C82G A111U A120G A145G C150G C169U U176A, the figure is 0.0116.
Then C82G A111U A120G A145G C150G C169U U176C, with 0.0128; and C82G A111U A120G A145U U176C, with 0.0193; and C82G A111U A120G A145U U176A, with 0.0138.
With C82G A111U A120G A145U U176G, the reverse-splicing fitness worked out at 0.00635.
Then C82G A111U A120U A145C C169U U176C, with 0.00238.
Then C82G A111U A120U A145C C169U U176G, with 0.00178; and C82G A111U A120U A145C C169U U176A, with 0.00287.
As for C82G A111U A120G A145G C150U C169A U176G, the reverse-splicing fitness turned out to be 0.00683.
Then C82G A111U A120G A145G C150U C169A U176A, with 0.0158.
As for C82G A111U A120G A145G C150U C169A U176C, the figure is 0.0145.
For the variant C82G A111U A120G A145G C150A C169U, the reverse-splicing fitness was 0.00945.
Then C82G A111U A120G A145G C150A C169G, with 0.00903; and C82G A111U A120G A145G C150A C169A, with 0.0109; and C82G A111U A120U A145G C150A C169A U176A, with 0.00821.
Then C82G A111U A120U A145G C150A C169A U176G, with 0.00334.
Regarding C82G A111U A120U A145G C150A C169A U176C, the reverse-splicing fitness came out at 0.00438.
As for C82G A111U A120G A145C C150A U176C, the figure is 0.0103; as for C82G A111U A120G A145C C150A U176G, 0.00582.
Then C82G A111U A120G A145C C150A U176A, with 0.00962; and C82G A111U A120G A145U C150A C169G U176G, with 0.00501; and C82G A111U A120G A145U C150A C169G U176C, with 0.0163.
Then C82G A111U A120G A145U C150A C169G U176A, with 0.0162.
As for C82G A111U A120G A145C C150U, the reverse-splicing fitness came to 0.00849.
As for C82G A111U A120G A145C C150G, the figure is 0.00659.
As for C82G A111U A120G A145C C150U C169A U176C, the figure is 0.0083; as for C82G A111U A120G A145C C150U C169A U176G, 0.00544.
Then C82G A111U A120G A145C C150U C169A U176A, with 0.0138; and C82G A111U A120G C150G C169U U176C, with 0.0123; and C82G A111U A120G C150G C169U U176A, with 0.00893.
Consider C82G A111U A120G C150G C169U U176G, for which the reverse-splicing fitness came to 0.00592.
As for C82G A111U A120G A145C U176C, the figure is 0.0136.
As for C82G A111U A120G A145C U176A, the figure is 0.012; as for C82G A111U A120G A145C U176G, 0.0065.
On to C82G A111U A120G C150A C169A U176A, for which the reverse-splicing fitness is 0.0207.
Consider C82G A111U A120G C150A C169A U176C, for which the reverse-splicing fitness was found to be 0.0211.
As for C82G A111U A120G C150A C169A U176G, the figure is 0.00601; as for C82G A111U A120G A145G C150G C169G U176G, 0.00621; as for C82G A111U A120G A145G C150G C169G U176C, 0.0116.
Then C82G A111U A120G A145G C150G C169G U176A, with 0.0104.
